Article PMC4519979 (Biochemistry, 2015)
Numbering of substitutions follows the chain as printed. In names and notes the source's numbering stands.

Experiments:
[1] = target: the molecule itself; experiment: native gel or EMSA; BN-PAGE with Western blot for the His tag; membranes (30 ug protein) solubilised in PBS pH 7.4 with 1% DDM, 2.8 M urea, 1 mM EDTA, 30 min, room temperature; heptamer to monomers
[2] = target: the molecule itself; experiment: SEC; HiPrep Superdex 200 16/600 after Ni-NTA; 0.03% DDM, 50 mM sodium phosphate pH 7.5, 150 mM NaCl; ratio of heptamers to monomers
[3] = target: the molecule itself; experiment: FRET or BRET; homo-FRET between Trp residues of different subunits read by steady-state fluorescence anisotropy; heptameric and dissociated fractions from SEC, DDM-solubilised; excitation 295 nm, emission 340-360 nm
[4] = target: the molecule itself; experiment: native gel or EMSA; BN-PAGE after the fluorescence measurements of purified MscS reconstituted into DOPC bilayers (molar ratio 1:100; 40 mM HEPES pH 7.2, 100 mM KCl, 1 mM EGTA)

B1: wild-type (WT) MscS (complex, E. coli)
chain: MEDLNVVDSINGAGSWLVANQALLLSYAVNIVAALAIIIVGLIIARMISNAVNRLMISRKIDATVADFLSALVRYGIIAFTLIAALGRVGVQTASVIAVLGAAGLAVGLALQGSLSNLAAGVLLVMFRPFRAGEYVDLGGVAGTVLSVQIFSTTMRTADGKIIVIPNGKIIAGNIINFSREPVRRNEFIIGVAYDSDIDQVKQILTNIIQSEDRILKDREMTVRLNELGASSINFVVRVWSNSGDLQNVYWDVLERIKREFDAAGISFPYPQMDVNFKRVKEDKAA
Q: How did the “stoichiometry N” value [1] turn out when B1 was run?
A: 7

B2: MscS YFF R88W (complex, E. coli, UniProt P0C0S1 1-286, looked up)
chain: B1 chain with W16Y, R88W, W240F, W251F
Q: Does B2 bind [2]?
A: binds

B3: MscS YFF I97W (complex, E. coli, UniProt P0C0S1 1-286, looked up)
chain: B1 chain with W16Y, I97W, W240F, W251F
Q: Does B3 bind [2]?
A: binds

B4: MscS YFF A98W (complex, E. coli, UniProt P0C0S1 1-286, looked up)
chain: B1 chain with W16Y, A98W, W240F, W251F
Q: Does B4 bind [2]?
A: binds

B5: MscS YFF (complex, E. coli)
chain: B1 chain with W16Y, W240F, W251F
Q: With B5 as the protein, how does the “stoichiometry N” value [1] read?
A: 7

B6: MscS YFF G90W (complex, E. coli)
chain: B1 chain with W16Y, G90W, W240F, W251F
Q: Does B6 bind [2]?
A: binds

B7: MscS YFF L109W (complex, E. coli, UniProt P0C0S1 1-286, looked up)
chain: B1 chain with W16Y, L109W, W240F, W251F
Q: Does B7 bind [3]?
A: binds

B8: MscS YFF T93W (complex, E. coli)
chain: B1 chain with W16Y, T93W, W240F, W251F
Q: For B8, which “stoichiometry N” value [4] is on record?
A: 7

B9: MscS YFF A103W (complex, E. coli, UniProt P0C0S1 1-286, looked up)
chain: B1 chain with W16Y, A103W, W240F, W251F
Q: Which “stoichiometry N” value [4] does the source give for B9 here?
A: 7

B10: MscS YFF L105W (complex, E. coli, UniProt P0C0S1 1-286, looked up)
chain: B1 chain with W16Y, L105W, W240F, W251F
Q: Which “stoichiometry N” value [4] does the source give for B10 here?
A: 7

B11: MscS YFF G113W (complex, E. coli, UniProt P0C0S1 1-286, looked up)
chain: B1 chain with W16Y, G113W, W240F, W251F
Q: How did the “stoichiometry N” value [4] turn out when B11 was run?
A: 7

B12: MscS YFF A94W (complex, E. coli)
chain: B1 chain with W16Y, A94W, W240F, W251F
Q: Which “stoichiometry N” value [4] does the source give for B12 here?
A: 7

B13: MscS YFF G101W (complex, E. coli, UniProt P0C0S1 1-286, looked up)
chain: B1 chain with W16Y, G101W, W240F, W251F
Q: How did the “stoichiometry N” value [4] turn out when B13 was run?
A: 7
